From the DeepSol protein solubility set

Test: soluble on expression in E. coli; label from the status in PepcDB or PDB records

Sequence | soluble on expression in E. coli
MSLSSDRLIYLPLGGAGEIGMNAYVYGYGKPGKERLILVDLGVTFPDMDTTPGVDLIMPDIAWLAKNRDRLEAVFITHAHEDHVGAVAHLYDRLGAPVYARAFTANIARRKMGEHGHPDEAVTTVSAWPEMTEAGPFQVGFVPLSHSIPESSGLVIDTPAGRIVHSGDFKLDENPIVGEAFDRKLWEEVAKPGVKVFACDSTNVMSRHPGRSESSVGGEIEKLVGTAEGVFVATTFASNVARVLTLAEAGQRAGRSVCLLGRAMRRMIEAAIETGVLADFPRTVSPEDARNIPRENLMLIVTGSQGERRAASAQLANGKYQGIELKEGDMFLFSSKTIPGNERGVLRIVNQLSEKGVDVIDDSSGLYHVSGHANRPDLETMHEILQPEILVPMHGEHRHLREHVKLADKRGIKGILAVNGMMIDLTGEGHHHHHH | soluble
MKPSIFRQALCVSAAAVLTTVSHSLTTPTAHAQGGTPGLMEFRWDSDRNYRKLYYFQTSSIENDRSEWYLHLRAKDRKTSIMKLTVTVPDYFDAKLRPERMTLCRTSSGSMTKRTRCLEEVPATIEVNKTQTAIEVYPDTPVPVEGDYSLRIKLFNPQGKRMYQLNALIQAPGDVPMSGYVGSWLIDMD | not soluble
MKKTLTVTLSSIAAFIAINTAANAQESETSQLDTYATGDVITNQSNLGIYIVKPGDSLYKIALEHNLSLEELYALNPGVEPLIFPGDEIVVSETAFEQFNNTNTFVNYETNYIPVGYNNVSTDTSNTTYDNYDSESTDTYSVSNAYDGLRSVSNSGNLYTTGQCTYYAFDRRAELGKPIGSLWGNASNWAYSANQAGFNVDHTPEVGAVFQSGPGQNGAGAYGHVGVVESINSNGSVTVSEMNWNGGVNVKSYRTISNPNSYNYIHLEHHHHHH | not soluble
GGQFIAFLRNITERKRAEALHRMGQDILLALNENEDMKEAIQRVLGLLRSATGVDAVGIRLQDGDDFPYFYQEGFPPDFLQKEDSIVARNKDGGVCRDSCGNVCLECTCGMVISGSTDHANPLFTPGGSAWTNDSFPYLEVPADQDPRTTPRDECIHQGYASIALIPIRAKGRIVGLLQLNDRRKGRFTREGIEALEDIAKNIGEAMLRKQAEEKLVASERFLRMLTNQLPGMVGYWDRD | not soluble
MKVEKEFPLMNFSLRRLPLFILIKTRKQTIEMNLRKKGHGIFFSRFGVFISKKKNHINICTLLLTKHPYTKGFPRQNVVETILFRRNSKTHFGRPATRRRPLGEREVNPSARSLG | soluble
MGSDKIHHHHHHMVWRDLLEVIYKLDPKPGLGLEIAKHVQPKHLGIIAYLALSCDNLGEALIRYHDFHRLIYDGSPLVVELQGRYGSIRWEATELHPTQLTDEIAIALVIQFLRLFMSHEDVQLHEVRFLNAAPKNIRVYEQYFQCPVRFSQPRTELLIPITEIHKPLSSADHTLQQLLVQQAQALLEQLPNSTQLDQRLQHSILTGLQKNQYQIEYIAAQLGLSVRQLQRHLQQQSTTFQERVQQVRFMLATEYLKDPHLSLQEIALLLCYSEQSAFQRAFKHWTKQTPQQWRDQFLDKE | not soluble
MGSDKIHHHHHHMSEKSASNNKAEFKRQSSPFREIISADHPIYKPAKGRYWLYVALPCPWAQRTLITRALKGLAPIIGCSVAHWHLDDKGWRFLEEGDGKTNERHWFDIAGGISSVNLNTSTPVANIPNNAHRLLVDGTDEPHYGYKRLSDFYFKTKPDYKGRFTVPVLWDLETCTIVNNESSDIIGIMNSAAFDEFVGEEYRQVRLVPRSLEAQITEFNSWVYDKINNGVYKAGFAECAEVYEREVTSLFQYLDKLENLLDKKYTDLEAEYGKNNKDKILDRYFAIGDTLTEADVRLYPTIVRFDVVYHQHFKCNLATIRDDYSRIHTWLKNIYWRHEAFQRTTDFTHIKLGYTRSQPRVNPIGITPLGPKPDIRPP | not soluble
MLDLFADEAPWQEPLAPGAVVLRRFAFRAAQSLLDDIGFVASQSPFRQMVTPGGYTMSVAMTNCGALGWTTDRHGYCYAVRDPLTDKPWPALPLSFASVCRQAAIAAGYASFQPDACLINRYAPGAKLSLHQDKDEPDLRAPIVSVSLGVPAVFQFGGLRRSDPIQRILLEHGDIVVWGGESRLFYHGIQPLKAGFHPMTGEFRYNLTFRQAAEKELEHHHHHH | soluble
MSLLFDQGHAYQPLAEVLRPQTLTDYIGQQHILGPGKPLRQTLENRNLHSMIFWGPPGVGKTTLANVISNTVEARFEVLSAVQAGVKDIKLVAEKAKQAQAYGEVTVLFVDEVHRFNKAQQDAFLPYVENGTFIFIGATTENPSFELNSALLSRARVYVLKSFTDDDFRQLWQRARSLDERIAKLAIENDALDGLIQFADGDARRFLNFLEIAIDFFTSEAVITLDDIRELLSHQPRRFDKGGENFYDQISAFHKSVRGSSPDGALYWLCRMLDGGIDPLYLARRMVRIASEDIGNADPRALTLALNAWDSQERLGSPEGELSLAQAAVYLASAPKSNAVYTAFNAMMSAVRSSHSAEVPLHLRNAPTSLMKDLDYGRDYRYAHDEPHAYAAGEVYLPDHMQGQRFYDPVDRGLEQKIRQKLDFLKQLDEQAQNQEDEGHHHHHH | soluble
AVKVGINGFGRIGRNVFRAALKNPDIEVVAVNDLTDANTLAHLLKYDSVHGRLDAEVSVNGNNLVVNGKEIIVKAERDPENLAWGEIGVDIVVESTGRFTKREDAAKHLEAGAKKVIISAPAKNEDITIVMGVNQDKYDPKAHHVISNASCTTNCLAPFAKVLHEQFGIVRGMMTTVHSYTNDQRILDLPHKDLRRARAAAESIIPTTTGAAKAVALVLPELKGKLNGMAMRVPTPNVSVVDLVAELEKEVTVEEVNAALKAAAEGELKGILAYSEEPLVSRDYNGSTVSSTIDALSTMVIDGKMVKVVSWYDNETGYSHRVVDLAAYIASKGL | soluble
GSHMSLDNKPIMRVASIDIGSYSVRLTIAQIKDGKLSIILERGRITSLGTKVKETGRLQEDRIEETIQVLKEYKKLIDEFKVERVKAVATEAIRRAKNAEEFLERVKREVGLVVEVITPEQEGRYAYLAVAYSLKPEGEVCVVDQGGGSTEYVFGKGYKVREVISLPIGIVNLTETFFKQDPPTEEEVKRFFEFLEKELSKVKKPVDTIVGLGGTITTLAALEYNVYPYDPQKVHGKVLTYGQIKKWFDTFKEIPSEERSKRFRQVEDRRAKVILAGIGIFLKTLEIFEKDCLIVSDWGLREGVLVSEVLKENHS | soluble
KPAKPAAKSIVTLDVKPWDDETNLEEMVANVKAIEMEGLTWGAHQFIPIGFGIKKLQINCVVEDDKVSLDDLQQSIEEDEDHVQSTDIAAMQAL | soluble
MSNKLESYRSEIVSLNHQILDLLSKRGELAQKIGEEKLKQGTRIYDPQREKEMLNDLIDSNKGPFNDNTIKQLFKEIFKASTDLQKSENEKHLYVSRKLKPEDTIVTFDNGGIIGDGNKSFVFGPCSVESFEQVEAVAKNLHAKGEKFIRGGAFKPRTSPYDFQGLGVEGLKILKQIKDKYDLNVVSEIVNPNDFEVADEYLDVFQIGARNMQNFELLKEAGRTKKPILLKRGLSATIEEFVYAAEYIASQGNQNIILCERGIRTYEKATRNTLDISAVPILKQGTHLPVMVDVTHSTGRKDIMLPTAKAALAVGADGVMAEVHPDPSVALSDAGQQMDLDEFQAFYDELKPLADLYNAKKLK | not soluble
MAHHHHHHSLSFSCPLCHQPLSREKNSYICPQRHQFDMAKEGYVNLLPVQHKRSRDPGDSAEMMQARRAFLDAGHYQPLRDAIVAQLRERLDDKATAVLDIGCGEGYYTHAFADALPEITTFGLDVSKVAIKAAAKRYPQVTFCVASSHRLPFSDTSMDAIIRIYAPCKAEELARVVKPGGWVITATPGPRHLMELKGLIYNEVHLHAPHAEQLEGFTLQQSAELCYPMRLRGDEAVALLQMTPFAWRAKPEVWQTLAAKEVFDCQTDFNIHLWQRSYEG | soluble
MNAPRCLRRLLERQWRQGGWLSTLLRPLAALTGLVVARKRNAYLTGARAAWRAPVPVVVVGNIYVGGTGKTPVVIEVVRQLQARGWTPGVVSRGYGVDVGAAPRVGQGQLAAADYGDEPALIARATGAAIAVHPHRPRAVQALLRAHPGVDVVVSDDGLQHLALARDVEIVVQDERGVGNGRLLPAGPLREPAQRLADVDAIVTNAGRPRAAAAPAAGAPRQLAMWLEPTHAQRVTDGATRTLADLAALPPARLAAAAGIGNPARFFQTLEQAGIRPAHTLALPDHYAYAQSPFTALDADLILVTAKDAIKCAALDDPRLWAVQVGTRLSDPDFGDWLSATLRARQPKLAAALEHHHHHH | not soluble
MMTLPYPYSSSARFYALRLLPGQEVFSQLHAFAQQQQLHAAWIAGCTGSLTDIALRYAGQEGTTLLNGTFEVISLNGTLEQSGEHLHLCVSDPHGTMLGGHMMPGCTVRTTLELVIGSLEELAFSRQPCALSGYDELHISPVK | not soluble
MGSDKIHHHHHHMIYNYGFLDENTKKEIRRKILKAISIPGYQVPFGSRELPIAKGWGTGGLQLTLSLIGKNDVVKVIDQGSDDSTNACNIRSFIASVSNVETTKDTLEATLIQTRHRIPEEKLKSNQILIFQVPIPETLRIVEPSEVETRRMHSEEDYSRMWVYLYEDIVRFNDISIAVEYPCKVNDRYLMNPSPIPRFDIKKLNMSDNLFLFGAGREKRIYAIPPYTKVEPLEFEDYKFEEEKFEGKYCSLCNSTNTFLDEVYDSDTNEKYYSCSDTSYCEKVRLKNNSIDVTIGGTWNE | not soluble
MGSDKIHHHHHHMSMAMEHDLLIVGGGPVGATLALALQYKGIDATVLEARAHGAAHHDQRALALSYGSILILERLGLWSGLKPKATAINTIHVSQRGSLGRSLLKAEDHDQPALGYVLSYGDLSAALDDAIRQFPGIQVRYEAEALAIKPGREAAHVEYQYQAQAYSCNSRMTVLADGGRSLADIPGLERETKHYGHDALVSKVSCELPHDNIAYERFTPAGPVALLPNGTRDFSLVWTGKAEEVQALLALDDAAFLEALHTHFGDRVGRFLTVGKRLSFPLKLSYLKPVTAPHLTVIGNAAQTMHPVAGQGFNVGMRDAWELAQLLAQTPSEEWGMDRMMQAYQASRKADTRGGLLFTDFLVNVFSNDIVGLRKIRSLGLGLLDMLPLAKQHLVSKMSFGPRG | not soluble
MGSDKIHHHHHHMNLKDLENPGVWYRPAPFWSWNDKLCEEELLRQIDEMYEKGYGGFFMHSRVGLVTEYLSEEWMRLVRSCAEHARKLGMLAWLYDEDKWPSGFAGGIVPLEKPEHRHKYLTLLKKDQIKPEDEILKKIERDGEEFYVVKRVMKLGDPWFNGTCYVDLLSRETTEAFLRSTHERYKKSCGDLFRVSIPGIFTDEPTYLRVHHPKETTLPWTERFPEEFLRRKGYDIRDHLEELFFNVKDYMKVRYDFFDVATSLFIENFTIPYAKWCEENGIFMTGHYMAEDTLRGQVEWIGAAMPHYEYMQIPGIDKLARHLEQVVTIKQVSSAAEQLGKKWVLCETFGTTGQHVSFLHRKWIADWQAVLGVTYINPHLSLYSMRGERKRDYPPNLFYQQPWWKNERFLSDYFARLNHIVTQGKREVKVLMIHPISSAWCVYSKFDDEIDKLNELFDTITKELVANKIDFHFGDEMILSKHGRVKEAKLRVGEYEYEVVVLPPLLNLKSSTVELLNSLAENGGKVFVLKDFRYGRFFPERVEGKKGRIEFLKKARVFETLEDLIEELKPFFSVDVLDTKTKENAKAVIAQKRVLEDGSYLLFLANTDIDREVHCHLELKEKRKHTYAIDLFNFKLVELKENEFVMFPASSVCIWVTDEEVPAEDEKVVSTGVLLEKEFDFETALNDFEVKMNSFNVLPVDRVEYFEAGGRVFRNEFVSKIWYEFYRLPDGTPFRVEYSFEVRKKPQKLFLVVECAENLDRITVNGREVRYERKSCIFNEEQNFLDVNFGKMEITDLVREGKNTVVLEGRKENNITGPGCHTRVKDPENHRPTEVETIYLVGDFSLVNVDETRYVIDAPKIPDHRDITRDGYPFYVGSFTLKKIFECKKDPGKRYFLKLNGVEAASVEVILNGKFLGVLFWRPFMIDITDALRNGKNELQLVLTNTLFNLIEANHKADVLEETFRRPKSFIDFEHHTDRYILLPFGLENVAVLSSSSR | not soluble
